Assay results taken from publication PMC3711072, “The Activity of CCL18 is Principally Mediated through Interaction with Glycosaminoglycans” (Frontiers in Immunology, 2013).
Several values for one entry are separate records, joined by “and”; a condition that tells them apart may be missing. Equal values may be shown once.

T1: Radiolabeled CCL18 (125I-CCL18) (human, UniProt P55774 21-89, 125I label (radiolabeled; residue not stated))
T1 construct: CCL18, radioiodinated; also called tracer; source: bought: Anawa
T1 sequence (looked up): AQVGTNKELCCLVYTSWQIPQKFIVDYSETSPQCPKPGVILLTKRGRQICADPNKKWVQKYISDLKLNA

T2: CCR3 (UniProt P51677 1-355)
T2 construct: CC chemokine receptor CCR3 expressed on L1.2 transfectants; In the functional rows on internalisation the CCR3 is the endogenous receptor of human eosinophils; also called CCR3 on L1.2/CCR3 transfectants; source: L1.2/CCR3 transfectants, on cells
T2 sequence (looked up): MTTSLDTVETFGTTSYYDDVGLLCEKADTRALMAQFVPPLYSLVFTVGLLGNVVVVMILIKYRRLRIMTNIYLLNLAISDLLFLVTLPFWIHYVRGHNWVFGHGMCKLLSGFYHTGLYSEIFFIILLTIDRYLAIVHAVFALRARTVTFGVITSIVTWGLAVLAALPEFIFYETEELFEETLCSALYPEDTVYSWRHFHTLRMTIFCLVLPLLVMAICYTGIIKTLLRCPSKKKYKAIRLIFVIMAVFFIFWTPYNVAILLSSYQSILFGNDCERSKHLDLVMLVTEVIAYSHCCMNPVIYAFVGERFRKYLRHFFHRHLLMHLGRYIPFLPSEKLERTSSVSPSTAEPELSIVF

B1: Evasin-4 (natural protein)
chain: EVPQMTSSSAPDLEEEDDYTAYAPLTCYFTNSTLGLLAPPNCSVLCNSTTTWFNETSPNNASCLLTVDFLTQDAILQENQPYNCSVGHCDNGTCAGPPRHAQCW
modifications: glycosylated (sites not given)
notes: source: produced as previously described (18, 19)
B2: Evasin-1 (natural protein)
chain: EDDEDYGDLGGCPFLVAENKTGYPTIVACKQDCNGTTETAPNGTRCFSIGDEGLRRMTANLPYDCPLGQCSNGDCIPKETYEVCYRRNWRDKKN
modifications: glycosylated (sites not given)
notes: as for B1
B3: CCL11 (ligand)
chain: not shown
notes: chemokine CCL11; source: obtained from PeptroTech or produced as previously described (17)
B4: CC chemokine ligand 18 (CCL18) (ligand, human, UniProt P55774 21-89, looked up)
chain: T1 sequence (looked up)

How the values were obtained:
[1] = biological target: B4; experiment: SEC; 500 ug CCL18 and an equimolar amount of Evasin incubated 45 min at RT in PBS, Superdex 75 in PBS, 1.5 ml/min, calibrated column; fractions on silver stained SDS-PAGE; CCL18 and Evasins also run alone; settings: both partners purified
[2] = biological target: T1, Radiolabeled CCL18 (125I-CCL18); experiment: radioligand binding; equilibrium competition: increasing concentration of Evasin against 125I-CCL18 binding to L1.2/CCR3 transfectants; Evasin binds the tracer; settings: both partners purified
CCR3 [3] = biological target: T2, CCR3; experiment: radioligand binding; equilibrium competition binding of 125I-CCL18 on L1.2/CCR3 transfectants, increasing concentration of unlabelled competitor; settings: one partner purified
CCR3 [4] = biological target: T2, CCR3; experiment: cell-based or functional assay

B1
stoichiometry N [1]: 1 | IC50 [2]: 0.015 nM and 0.03 nM

B2
stoichiometry N [1]: 1 | IC50 [2]: 9.92 nM and 7.94 nM

B3
IC50 (CCR3 [3]): 4.99 nM

B4
inhibition of CCL11-induced chemotaxis of L1.2/CCR3 transfectants by CCL18 previously incubated with a twofold molar excess of Evasin-3 (no effect of Evasin-3), IC50, n = 3 (CCR3 [4]): 446 nM | inhibition of CCL11-induced chemotaxis of L1.2/CCR3 transfectants by CCL18 with Evasin-3 as a control, IC50 of the experiment shown (CCR3 [4]): 421 nM | inhibition of migration of L1.2/CCR3 transfectants to 1 nM CCL11 (blocks CCL11-CCR3), IC50 of the experiment shown (CCR3 [4]): 557 nM | inhibition of the chemotactic response of L1.2/CCR3 transfectants induced by 1 nM CCL11 (blocks CCL11-CCR3), IC50, mean of n = 7 (CCR3 [4]): 318 nM
